Experimental findings from the supplement of paper PMC6379048 are described below.

Broadly, the Kd is the equilibrium constant for the complex coming apart. A lower Kd goes with tighter binding.

What all share (test): Kd (EC50 corrected by depletion factor)
The target in one data set is PABPC4 (UniProt Q13310). The procedure, abridged: (§1)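 HEK293-FT lysate (2.5 mg protein/well) was treated with free RNA oligos (0 nM to 30 μM) for 1 h at 4°C, then with the same oligos on NHS-Sepharose beads for 30 min at 4°C. Bound proteins were quantified by label-free LC-MS/MS relative to the control. EC50 came from a four-parameter log-logistic fit, and Kd is EC50 times a protein-dependent depletion factor.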

The target in the next data set is T1, RBMS3 (UniProt Q6XE24).
T1 sequence: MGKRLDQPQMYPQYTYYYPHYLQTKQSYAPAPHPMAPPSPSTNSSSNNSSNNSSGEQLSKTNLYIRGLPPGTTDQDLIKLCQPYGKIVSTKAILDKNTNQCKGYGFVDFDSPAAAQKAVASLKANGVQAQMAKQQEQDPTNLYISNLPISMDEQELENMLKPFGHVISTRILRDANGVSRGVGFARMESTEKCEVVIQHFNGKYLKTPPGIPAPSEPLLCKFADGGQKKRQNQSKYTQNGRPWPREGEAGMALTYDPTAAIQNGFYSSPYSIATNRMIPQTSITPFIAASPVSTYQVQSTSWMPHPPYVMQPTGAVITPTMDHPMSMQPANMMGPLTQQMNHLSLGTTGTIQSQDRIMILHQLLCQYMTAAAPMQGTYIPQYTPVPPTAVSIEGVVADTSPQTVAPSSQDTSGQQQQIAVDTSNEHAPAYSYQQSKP
The procedure, abridged: as §1

Another data set addresses T2, CSTF2 (UniProt P33240).
T2 sequence: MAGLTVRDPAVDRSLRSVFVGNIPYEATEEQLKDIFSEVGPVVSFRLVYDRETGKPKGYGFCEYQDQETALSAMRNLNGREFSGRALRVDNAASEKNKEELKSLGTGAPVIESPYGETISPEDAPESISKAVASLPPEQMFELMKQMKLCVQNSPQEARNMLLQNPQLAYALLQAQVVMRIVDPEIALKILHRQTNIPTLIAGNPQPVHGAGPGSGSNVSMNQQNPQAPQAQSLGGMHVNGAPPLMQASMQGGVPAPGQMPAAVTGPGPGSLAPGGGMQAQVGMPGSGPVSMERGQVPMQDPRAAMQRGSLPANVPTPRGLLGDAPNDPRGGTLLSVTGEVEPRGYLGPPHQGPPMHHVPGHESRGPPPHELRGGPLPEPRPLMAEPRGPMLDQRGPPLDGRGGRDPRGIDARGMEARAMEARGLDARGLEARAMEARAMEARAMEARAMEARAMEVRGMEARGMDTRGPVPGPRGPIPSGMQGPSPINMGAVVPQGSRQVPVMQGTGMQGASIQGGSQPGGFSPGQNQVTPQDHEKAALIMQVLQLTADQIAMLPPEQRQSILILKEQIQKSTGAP
The procedure, abridged: as §1

A further data set has as its target T3, RBM17 (UniProt Q96I25).
T3 sequence: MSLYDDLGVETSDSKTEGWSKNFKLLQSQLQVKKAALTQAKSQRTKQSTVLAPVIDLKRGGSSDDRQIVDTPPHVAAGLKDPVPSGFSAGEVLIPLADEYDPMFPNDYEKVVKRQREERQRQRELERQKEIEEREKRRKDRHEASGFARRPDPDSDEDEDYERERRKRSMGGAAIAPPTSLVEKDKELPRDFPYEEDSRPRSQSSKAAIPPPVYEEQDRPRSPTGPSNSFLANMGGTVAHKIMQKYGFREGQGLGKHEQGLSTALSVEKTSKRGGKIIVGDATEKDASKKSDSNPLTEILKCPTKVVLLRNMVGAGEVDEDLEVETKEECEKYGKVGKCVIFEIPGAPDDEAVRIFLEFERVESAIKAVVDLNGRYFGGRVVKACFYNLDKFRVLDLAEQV
The procedure, abridged: as §1

For another data set, the target named is T4, ISY1 (UniProt Q9ULR0).
T4 sequence: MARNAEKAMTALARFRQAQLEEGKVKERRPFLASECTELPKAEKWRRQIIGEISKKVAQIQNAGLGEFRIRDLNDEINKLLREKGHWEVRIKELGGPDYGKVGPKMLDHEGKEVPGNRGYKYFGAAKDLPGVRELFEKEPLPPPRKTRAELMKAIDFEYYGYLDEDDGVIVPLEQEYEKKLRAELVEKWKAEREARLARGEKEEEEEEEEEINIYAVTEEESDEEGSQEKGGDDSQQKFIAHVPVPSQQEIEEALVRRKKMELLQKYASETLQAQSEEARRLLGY
The procedure, abridged: as §1

In another data set the target is T5, LSM2 (UniProt Q9Y333).
T5 sequence: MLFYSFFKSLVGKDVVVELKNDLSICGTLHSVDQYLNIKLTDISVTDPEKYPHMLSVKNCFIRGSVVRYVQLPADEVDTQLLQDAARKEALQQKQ
Put shortly:
as §1

In the next data set the target is T6, CPSF3 (UniProt Q9UKF6).
T6 sequence: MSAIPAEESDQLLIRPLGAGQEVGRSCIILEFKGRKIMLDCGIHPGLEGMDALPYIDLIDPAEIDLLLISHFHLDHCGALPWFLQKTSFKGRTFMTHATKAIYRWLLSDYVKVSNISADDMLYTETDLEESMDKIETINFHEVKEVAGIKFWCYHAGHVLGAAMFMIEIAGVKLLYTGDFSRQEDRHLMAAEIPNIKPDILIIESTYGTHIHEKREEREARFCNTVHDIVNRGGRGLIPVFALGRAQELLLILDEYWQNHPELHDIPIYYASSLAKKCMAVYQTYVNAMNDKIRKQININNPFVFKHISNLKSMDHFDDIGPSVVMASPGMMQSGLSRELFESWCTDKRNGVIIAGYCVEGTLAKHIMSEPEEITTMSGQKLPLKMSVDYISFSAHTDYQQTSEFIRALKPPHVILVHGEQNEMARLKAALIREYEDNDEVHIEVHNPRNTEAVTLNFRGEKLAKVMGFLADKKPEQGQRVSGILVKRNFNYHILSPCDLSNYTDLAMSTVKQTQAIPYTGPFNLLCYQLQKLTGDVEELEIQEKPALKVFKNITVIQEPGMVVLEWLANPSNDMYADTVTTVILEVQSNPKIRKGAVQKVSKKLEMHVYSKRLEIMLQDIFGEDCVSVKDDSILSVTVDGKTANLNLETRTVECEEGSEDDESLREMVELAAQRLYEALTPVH
The procedure, abridged: as §1

Chain of PABPC4 (Q13310 whole entry): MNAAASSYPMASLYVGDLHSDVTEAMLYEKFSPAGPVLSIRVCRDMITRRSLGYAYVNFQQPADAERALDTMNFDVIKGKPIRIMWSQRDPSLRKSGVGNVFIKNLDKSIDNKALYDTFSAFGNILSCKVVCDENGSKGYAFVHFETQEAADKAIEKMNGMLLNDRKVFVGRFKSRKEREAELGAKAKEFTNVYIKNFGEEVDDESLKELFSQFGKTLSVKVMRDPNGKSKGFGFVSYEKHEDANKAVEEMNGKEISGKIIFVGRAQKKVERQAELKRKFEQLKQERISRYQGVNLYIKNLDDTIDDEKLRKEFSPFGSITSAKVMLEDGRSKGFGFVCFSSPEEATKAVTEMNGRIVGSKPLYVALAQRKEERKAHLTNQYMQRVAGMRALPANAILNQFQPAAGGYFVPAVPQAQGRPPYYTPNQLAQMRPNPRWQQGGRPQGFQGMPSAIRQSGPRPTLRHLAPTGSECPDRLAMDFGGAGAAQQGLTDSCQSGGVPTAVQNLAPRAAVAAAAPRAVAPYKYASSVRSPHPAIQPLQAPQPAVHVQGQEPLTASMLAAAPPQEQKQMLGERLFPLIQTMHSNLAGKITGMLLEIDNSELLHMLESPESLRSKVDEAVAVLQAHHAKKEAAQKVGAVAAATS

Take AAUAAA: the equilibrium dissociation constant (Kd) worked out at 1530 nM with PABPC4; 153 nM with RBMS3; 7.84 nM with CSTF2; 940 nM with RBM17; 198 nM with ISY1; 52.7 nM with LSM2. Moreover, in the data set with CPSF3, the Kd was determined as 5.97 nM.

In the case of UAUUUAU, the Kd turned out to be 7840 nM with PABPC4; 97.3 nM with RBMS3; 286 nM with CSTF2; 59.9 nM with RBM17; 414 nM with ISY1; 309 nM with LSM2. The sequence further registered a Kd with CPSF3 of 270 nM.
